# Data: US20220242968A1 (BIOTHEUS, published 2022)
# T1: human CEACAM5 on tumor cells (LOVO, LS174T, KATO3) (human, UniProt P06731 35-685)
# T1 sequence (looked up): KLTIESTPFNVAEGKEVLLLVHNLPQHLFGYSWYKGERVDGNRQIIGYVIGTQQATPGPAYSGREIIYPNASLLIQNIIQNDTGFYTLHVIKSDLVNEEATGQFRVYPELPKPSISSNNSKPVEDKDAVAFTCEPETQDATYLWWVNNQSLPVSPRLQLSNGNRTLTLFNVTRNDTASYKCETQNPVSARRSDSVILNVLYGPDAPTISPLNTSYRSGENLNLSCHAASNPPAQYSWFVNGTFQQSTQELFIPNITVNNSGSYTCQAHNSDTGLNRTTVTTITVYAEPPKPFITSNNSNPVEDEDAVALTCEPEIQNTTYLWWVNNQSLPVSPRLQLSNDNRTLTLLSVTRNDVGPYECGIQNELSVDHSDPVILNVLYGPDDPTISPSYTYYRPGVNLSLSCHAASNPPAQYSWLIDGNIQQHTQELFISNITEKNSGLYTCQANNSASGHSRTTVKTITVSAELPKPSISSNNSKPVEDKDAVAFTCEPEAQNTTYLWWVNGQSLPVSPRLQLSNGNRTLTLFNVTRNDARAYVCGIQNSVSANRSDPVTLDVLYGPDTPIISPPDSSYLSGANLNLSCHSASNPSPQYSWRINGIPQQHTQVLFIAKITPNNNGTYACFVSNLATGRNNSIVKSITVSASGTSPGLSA
# T2: CEACAM3 overexpressed on SW620 cells (UniProt P40198 35-252, limits assumed)
# T2 construct: whole, on cells; also called SW620-CEACAM3
# T2 sequence (looked up): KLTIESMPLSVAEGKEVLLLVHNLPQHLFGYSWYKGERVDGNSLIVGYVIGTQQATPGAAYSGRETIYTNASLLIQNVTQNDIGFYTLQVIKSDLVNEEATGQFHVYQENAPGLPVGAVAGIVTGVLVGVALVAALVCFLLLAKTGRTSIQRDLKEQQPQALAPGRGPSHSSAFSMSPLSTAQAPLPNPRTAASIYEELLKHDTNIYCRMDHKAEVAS
# T3: CEACAM1 overexpressed on SW620 cells (UniProt P13688 35-526, limits assumed)
# T3 construct: whole, on cells; also called SW620-CEACAM1
# T3 sequence (looked up): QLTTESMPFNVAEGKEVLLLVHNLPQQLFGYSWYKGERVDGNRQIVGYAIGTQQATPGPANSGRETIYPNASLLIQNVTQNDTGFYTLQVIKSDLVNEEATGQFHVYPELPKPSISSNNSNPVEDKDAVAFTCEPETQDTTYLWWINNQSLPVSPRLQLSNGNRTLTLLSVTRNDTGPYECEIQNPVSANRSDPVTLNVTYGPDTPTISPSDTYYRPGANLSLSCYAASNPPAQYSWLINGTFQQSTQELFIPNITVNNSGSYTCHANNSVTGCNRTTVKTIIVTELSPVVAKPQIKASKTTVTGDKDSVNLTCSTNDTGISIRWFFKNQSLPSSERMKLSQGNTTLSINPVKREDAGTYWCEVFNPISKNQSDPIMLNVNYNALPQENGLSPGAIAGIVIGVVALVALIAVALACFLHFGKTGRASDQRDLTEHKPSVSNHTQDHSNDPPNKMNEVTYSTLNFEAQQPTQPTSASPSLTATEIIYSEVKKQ
# T4: CEACAM8 overexpressed on CHO cells (UniProt P31997 35-320, limits assumed)
# T4 construct: whole, on cells; also called CHO-CEACAM8
# T4 sequence (looked up): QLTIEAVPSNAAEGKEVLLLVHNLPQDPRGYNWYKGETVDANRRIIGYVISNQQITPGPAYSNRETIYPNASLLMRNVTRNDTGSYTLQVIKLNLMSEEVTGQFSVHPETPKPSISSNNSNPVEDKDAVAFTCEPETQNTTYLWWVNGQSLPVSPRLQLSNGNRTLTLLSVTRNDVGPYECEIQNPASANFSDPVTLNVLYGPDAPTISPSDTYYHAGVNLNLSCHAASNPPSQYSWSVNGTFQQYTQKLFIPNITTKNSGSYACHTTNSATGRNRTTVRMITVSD
# T5: human CEACAM5 protein (human, UniProt P06731 35-685, limits assumed)
# T5 construct: also called CD66e
# T5 sequence (looked up): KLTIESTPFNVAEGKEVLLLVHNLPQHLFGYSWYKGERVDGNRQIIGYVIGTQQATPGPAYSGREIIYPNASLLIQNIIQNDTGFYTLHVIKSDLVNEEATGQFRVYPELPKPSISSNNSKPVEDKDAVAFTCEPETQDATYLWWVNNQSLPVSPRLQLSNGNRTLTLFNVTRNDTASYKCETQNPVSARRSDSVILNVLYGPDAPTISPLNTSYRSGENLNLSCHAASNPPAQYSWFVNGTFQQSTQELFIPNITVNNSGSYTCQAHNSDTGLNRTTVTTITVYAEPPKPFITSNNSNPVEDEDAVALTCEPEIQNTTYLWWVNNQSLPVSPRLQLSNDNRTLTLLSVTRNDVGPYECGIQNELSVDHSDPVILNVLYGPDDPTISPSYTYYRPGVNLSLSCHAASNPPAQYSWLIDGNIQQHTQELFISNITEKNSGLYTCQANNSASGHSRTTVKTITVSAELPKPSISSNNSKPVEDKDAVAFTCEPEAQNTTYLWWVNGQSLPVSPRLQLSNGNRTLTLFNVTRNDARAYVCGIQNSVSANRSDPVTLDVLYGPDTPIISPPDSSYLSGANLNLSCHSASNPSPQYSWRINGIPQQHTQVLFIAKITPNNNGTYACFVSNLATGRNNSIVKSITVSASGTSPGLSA
# T6: CEACAM7 overexpressed on CHO cells (UniProt Q14002 36-242, limits assumed)
# T6 construct: whole, on cells; also called CHO-CEACAM7
# T6 sequence (looked up): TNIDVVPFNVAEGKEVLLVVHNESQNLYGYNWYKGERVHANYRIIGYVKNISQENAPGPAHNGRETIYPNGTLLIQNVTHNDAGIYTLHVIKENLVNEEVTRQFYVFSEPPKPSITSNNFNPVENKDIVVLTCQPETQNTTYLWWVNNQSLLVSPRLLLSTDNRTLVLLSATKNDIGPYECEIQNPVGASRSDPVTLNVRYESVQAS
# How the values were obtained:
# [1] = biological target: T1, human CEACAM5 on tumor cells (LOVO, …); assay: cell-based or functional assay
# [2] = biological target: T1, human CEACAM5 on tumor cells (LOVO, …); assay: FACS on LS174T cells
# Method: LS174T cells (tumor cells with high expression of CEACAM5) were cultured in RPMI1640 medium containing 10% FBS. After digesting LS174T cells with TrypLE trypsin, the cells were centrifuged and resuspended in DPBS solution (FACS buffer, 4° C.) containing 2% BSA; then, the cells were added at 5×10⁵/100 μL/well to the U-shaped bottom 96-well plate, and a series of dilution solutions of antibody were added to the U-shaped bottom 96-well plate, mixture was incubated at 4° C. for 1 hour. After incubation, the mixture was centrifuged and the resulted supernatant was discarded; 100 μl of secondary antibody (anti-human IgG Fc-APC) was added to each well, and incubated at 4° C. for 1 hour. After incubation, the cells were washed once with FACS buffer, resuspended in 200 μl FACS buffer, and the fluorescence signal value was read in BD C6 plus.
# The 47th amino acid (Cys) of the human-mouse chimeric antibody UM05-5L VH was mutated to Trp, and the mutated antibody was named UM05-5L C47W; the 47th amino acid (Trp) of the humanized antibody hUM05-3 VH was mutated to Cys, and the mutated antibody was named hUM05-3 W47C. As described in Example 10, the ability of the antibody binding to LS174T cells was tested.
# [3] = biological target: T1, human CEACAM5 on tumor cells (LOVO, …); assay: FACS on LOVO tumor cells naturally expressing human CEACAM5
# Method: (§1) Flow cytometry (FACS) was used to detect the binding of antibody to LOVO tumor cells naturally expressing human CEACAM5 or cells overexpressing different CEACAM family members. In short, cells were first collected, washed with PBS, counted, and diluted to obtain 2*10⁶/ml cell suspension; 10 μl of an antibody working solution was added to 100 μl of the cell suspension, and incubated at 4° C. for 30 min in the dark; after washing twice with PBS, a corresponding fluorescent-labeled secondary antibody Goat-anti-Human IgG (H+L) (Invitrogen) was added, incubated at 4° C. for 30 min in the dark, after washing twice with PBS, it was suspended in 400 μl of FACS buffer, and the binding profile of the antibody to the cells were detected by FACS.
# Furthermore, we used FACS to detect the EC50 of the chimeric antibody UM05-5L binding to LOVO tumor cells that naturally expressed human CEACAM5. […] Based on the above results, the chimeric antibody UM05-5L had excellent binding affinity, specificity and selectivity to CEACAM5.
# [4] = biological target: T2, CEACAM3 overexpressed on SW620 cells; assay: FACS on SW620-CEACAM3 cells
# Method: as §1
# (§2) The binding profile of the supernatants of the chimeric antibody UM05-5L and the control antibody UM05-8 (anti-CEACAM5 antibody, prepared by the hybridoma method in our laboratory) to different cells at a concentration of 3 μg/mL were detected, in which SW620-CEACAM1 was a cell overexpressing CEACAM1, SW620-CEACAM3 was a cell overexpressing CEACAM3, CHO-CEACAM6 was a cell overexpressing CEACAM6, CHO-CEACAM7 was a cell overexpressing CEACAM7, and CHO-CEACAM8 was a cell overexpressing CEACAM8. […]
# [5] = biological target: T3, CEACAM1 overexpressed on SW620 cells; assay: FACS on SW620-CEACAM1 cells
# Method: as §1, §2
# [6] = biological target: T4, CEACAM8 overexpressed on CHO cells; assay: FACS on CHO-CEACAM8 cells
# Method: as §1, §2
# human CEACAM5 protein = biological target: T5, human CEACAM5 protein; assay: ELISA, plate coated with human CEACAM5 protein at 1 µg/mL
# Method: On the next day, it was first washed with 300 μL of PBST (Tween20: 0.5% o) for 3 times, then blocked with 100 μL/well of 5% BSA/PBS for 1 hour, and shaken at room temperature. Washing was performed 3 times with 300 μL of PBST. A series of dilution solutions of antibody samples were prepared with PBS, and added at 100 μL/well to the 96-well plate and shaken at room temperature for 1 hour. Washing was performed 3 times with 300 μL of PBST. A secondary antibody goat anti-human IgG HRP solution was prepared, added at 100 μL/well to the 96-well plate, and shaken at room temperature for 30 minutes. Washing was performed 4 times with 300 μL of PBST. 100 μL/well TMB was added to perform color development for 20 min. 100 μL/well of 0.6N H₂SO₄ was added to stop the color development, and OD450nm was detected.
# [7] = biological target: T6, CEACAM7 overexpressed on CHO cells; assay: FACS on CHO-CEACAM7 cells
# Method: as §1, §2
Binder,"ADCC activity (luciferase in Jurkat/ADC effector cells, LOVO target cells), EC50 [1] [µg/mL]",EC50 [2] [µg/mL],Emax MFI (Average fluorescence intensity) [2] [MFI],EC50 [3] [µg/mL],binding result [4],binding result [5],binding result [6],EC50 (human CEACAM5 protein) [µg/mL],binding result [7]
"human-mouse chimeric antibody UM05-5L (antibody, human IgG1, kappa, V domains shown, expressed in HEK293) VH: QVQLQQSDADLVKPGASVKISCKVSGYTFTDHTIHWMKQRPEQGLECIGYIYPRDGNTKYNEKFKGKATLTADRSSITAYMQLNSLTSEDSAVYFCARPIYDGYSFDYWGQGTTLTVSS VL: QIVLTQSPAIMSASPGEKVTMTCRASSSVSYMHWYQQKSGTSPKRWIYDTSKLASGVPARFSGSGSGTSYSLTISSMAAEDAATYYCQQWTRNPPTFGAGTKLELKR",0.85,0.81,79700,3.17,no binding (tested: 3 µg/mL),no binding (tested: 3 µg/mL),no binding (tested: 3 µg/mL),0.105,no binding (tested: 3 µg/mL)
"UM05-5L C47W (antibody, human IgG1, kappa, V domains shown, also called mutated human-mouse chimeric antibody UM05-5L (VH Cys47 to Trp)) VH: QVQLQQSDADLVKPGASVKISCKVSGYTFTDHTIHWMKQRPEQGLEWIGYIYPRDGNTKYNEKFKGKATLTADRSSITAYMQLNSLTSEDSAVYFCARPIYDGYSFDYWGQGTTLTVSS VL: QIVLTQSPAIMSASPGEKVTMTCRASSSVSYMHWYQQKSGTSPKRWIYDTSKLASGVPARFSGSGSGTSYSLTISSMAAEDAATYYCQQWTRNPPTFGAGTKLELKR",–,2.46,55200,–,–,–,–,–,–
"humanized antibody hUM05-3 (antibody, V domains shown, detected with anti-human IgG Fc-APC) VH: EVQLVQSGAEVKKPGATVKISCKVSGYTFTDHTMHWMQQAPGQGLEWIGLIYPRDGSTIYNEKFQGRATLTADRSTDTAYMELSSLRSEDTAVYFCARPIYDGYSFDYWGQGTLVTVSS VL: QIVLTQSPATLSASPGERATLSCRASSSVSYMHWYQQKPGQAPKRWIYDTSNRATGVPARFSGSGSGTDYTLTISSMEPEDAAVYYCQQWTRNPPTFGQGTKLELK",–,0.53,52900,–,–,–,–,–,–
"hUM05-3 W47C (antibody, V domains shown, also called mutated humanized antibody hUM05-3 (VH Trp47 to Cys)) VH: EVQLVQSGAEVKKPGATVKISCKVSGYTFTDHTMHWMQQAPGQGLECIGLIYPRDGSTIYNEKFQGRATLTADRSTDTAYMELSSLRSEDTAVYFCARPIYDGYSFDYWGQGTLVTVSS VL: QIVLTQSPATLSASPGERATLSCRASSSVSYMHWYQQKPGQAPKRWIYDTSNRATGVPARFSGSGSGTDYTLTISSMEPEDAAVYYCQQWTRNPPTFGQGTKLELK",–,1.47,34400,–,–,–,–,–,–
